# According to US20140087995A1 (published 2014):
# Numbered stars: 1 amine (or outer) side, 2 acyl side, 3 side chain; on linkers, the order of the positions; unused ones are H or OH. Bridge positions count the residues as written; N and C are the ends. Side chains are listed from the residue outwards. Ends that are not written are not given here. * marks the point of attachment. C20 diacid = O=C(O)CCCCCCCCCCCCCCCCCCC(=O)*; γGlu = O=C(O)[C@H](CCC(=O)[*:2])N[*:1]
# T1: human calcitonin receptor (human, UniProt P30988 25-474)
# T1 sequence (looked up): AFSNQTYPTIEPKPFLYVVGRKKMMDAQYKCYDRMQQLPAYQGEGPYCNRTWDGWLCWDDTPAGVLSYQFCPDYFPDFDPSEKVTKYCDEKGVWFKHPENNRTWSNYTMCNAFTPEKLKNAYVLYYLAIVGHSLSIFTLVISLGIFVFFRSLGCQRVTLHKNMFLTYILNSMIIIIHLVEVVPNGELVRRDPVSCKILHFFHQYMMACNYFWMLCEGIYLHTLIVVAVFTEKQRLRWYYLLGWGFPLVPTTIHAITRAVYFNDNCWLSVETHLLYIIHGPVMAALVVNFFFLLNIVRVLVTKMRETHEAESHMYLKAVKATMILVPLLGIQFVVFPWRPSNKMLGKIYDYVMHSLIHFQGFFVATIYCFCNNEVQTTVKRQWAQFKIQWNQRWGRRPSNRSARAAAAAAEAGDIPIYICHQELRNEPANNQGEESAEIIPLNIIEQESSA
# B1: N^ε1-[(4S)-4-carboxy-4-(19-carboxynonadecanoylamino)butanoyl]-[Glu14,Arg17,Pro21,Pro27,His35]-h-amylin (peptide)
# peptide: K([γGlu-C20 diacid])CNTATCATQRLAEFLRHSSPNFGAIPSSTNVGSHTY-NH2
# modifications: disulfide 2-7; N-terminus assumed
# SMILES: CC[C@H](C)[C@H](NC(=O)[C@H](C)NC(=O)CNC(=O)[C@H](Cc1ccccc1)NC(=O)[C@H](CC(N)=O)NC(=O)[C@@H]1CCCN1C(=O)[C@H](CO)NC(=O)[C@H](CO)NC(=O)[C@H](Cc1c[nH]cn1)NC(=O)[C@H](CCCNC(=N)N)NC(=O)[C@H](CC(C)C)NC(=O)[C@H](Cc1ccccc1)NC(=O)[C@H](CCC(=O)O)NC(=O)[C@H](C)NC(=O)[C@H](CC(C)C)NC(=O)[C@H](CCCNC(=N)N)NC(=O)[C@H](CCC(N)=O)NC(=O)[C@@H](NC(=O)[C@H](C)NC(=O)[C@@H]1CSSC[C@H](NC(=O)[C@@H](N)CCCCNC(=O)CC[C@H](NC(=O)CCCCCCCCCCCCCCCCCCC(=O)O)C(=O)O)C(=O)N[C@@H](CC(N)=O)C(=O)N[C@@H]([C@@H](C)O)C(=O)N[C@@H](C)C(=O)N[C@@H]([C@@H](C)O)C(=O)N1)[C@@H](C)O)C(=O)N1CCC[C@H]1C(=O)N[C@@H](CO)C(=O)N[C@@H](CO)C(=O)N[C@H](C(=O)N[C@@H](CC(N)=O)C(=O)N[C@H](C(=O)NCC(=O)N[C@@H](CO)C(=O)N[C@@H](Cc1c[nH]cn1)C(=O)N[C@H](C(=O)N[C@@H](Cc1ccc(O)cc1)C(N)=O)[C@@H](C)O)C(C)C)[C@@H](C)O
# B2: N^ε1-[(4S)-4-carboxy-4-[[(4S)-4-carboxy-4-(19-carboxynonadecanoylamino)butanoyl]amino]butanoyl]-[Glu14,Arg17,Pro21,Pro27,Pro34,Phe37]-h-amylin (peptide)
# peptide: K([γGlu-γGlu-C20 diacid])CNTATCATQRLAEFLRHSSPNFGAIPSSTNVGPNTF-NH2
# modifications: disulfide 2-7; N-terminus assumed
# SMILES: CC[C@H](C)[C@H](NC(=O)[C@H](C)NC(=O)CNC(=O)[C@H](Cc1ccccc1)NC(=O)[C@H](CC(N)=O)NC(=O)[C@@H]1CCCN1C(=O)[C@H](CO)NC(=O)[C@H](CO)NC(=O)[C@H](Cc1c[nH]cn1)NC(=O)[C@H](CCCNC(=N)N)NC(=O)[C@H](CC(C)C)NC(=O)[C@H](Cc1ccccc1)NC(=O)[C@H](CCC(=O)O)NC(=O)[C@H](C)NC(=O)[C@H](CC(C)C)NC(=O)[C@H](CCCNC(=N)N)NC(=O)[C@H](CCC(N)=O)NC(=O)[C@@H](NC(=O)[C@H](C)NC(=O)[C@@H]1CSSC[C@H](NC(=O)[C@@H](N)CCCCNC(=O)CC[C@H](NC(=O)CC[C@H](NC(=O)CCCCCCCCCCCCCCCCCCC(=O)O)C(=O)O)C(=O)O)C(=O)N[C@@H](CC(N)=O)C(=O)N[C@@H]([C@@H](C)O)C(=O)N[C@@H](C)C(=O)N[C@@H]([C@@H](C)O)C(=O)N1)[C@@H](C)O)C(=O)N1CCC[C@H]1C(=O)N[C@@H](CO)C(=O)N[C@@H](CO)C(=O)N[C@H](C(=O)N[C@@H](CC(N)=O)C(=O)N[C@H](C(=O)NCC(=O)N1CCC[C@H]1C(=O)N[C@@H](CC(N)=O)C(=O)N[C@H](C(=O)N[C@@H](Cc1ccccc1)C(N)=O)[C@@H](C)O)C(C)C)[C@@H](C)O
# B3: N^ε1-[(4S)-4-carboxy-4-[[(4S)-4-carboxy-4-(19-carboxynonadecanoylamino)butanoyl]amino]butanoyl]-[Glu14,Arg17,Pro21,Pro27,His34,Glu35]-h-amylin (peptide)
# peptide: K([γGlu-γGlu-C20 diacid])CNTATCATQRLAEFLRHSSPNFGAIPSSTNVGHETY-NH2
# modifications: disulfide 2-7; N-terminus assumed
# SMILES: CC[C@H](C)[C@H](NC(=O)[C@H](C)NC(=O)CNC(=O)[C@H](Cc1ccccc1)NC(=O)[C@H](CC(N)=O)NC(=O)[C@@H]1CCCN1C(=O)[C@H](CO)NC(=O)[C@H](CO)NC(=O)[C@H](Cc1c[nH]cn1)NC(=O)[C@H](CCCNC(=N)N)NC(=O)[C@H](CC(C)C)NC(=O)[C@H](Cc1ccccc1)NC(=O)[C@H](CCC(=O)O)NC(=O)[C@H](C)NC(=O)[C@H](CC(C)C)NC(=O)[C@H](CCCNC(=N)N)NC(=O)[C@H](CCC(N)=O)NC(=O)[C@@H](NC(=O)[C@H](C)NC(=O)[C@@H]1CSSC[C@H](NC(=O)[C@@H](N)CCCCNC(=O)CC[C@H](NC(=O)CC[C@H](NC(=O)CCCCCCCCCCCCCCCCCCC(=O)O)C(=O)O)C(=O)O)C(=O)N[C@@H](CC(N)=O)C(=O)N[C@@H]([C@@H](C)O)C(=O)N[C@@H](C)C(=O)N[C@@H]([C@@H](C)O)C(=O)N1)[C@@H](C)O)C(=O)N1CCC[C@H]1C(=O)N[C@@H](CO)C(=O)N[C@@H](CO)C(=O)N[C@H](C(=O)N[C@@H](CC(N)=O)C(=O)N[C@H](C(=O)NCC(=O)N[C@@H](Cc1c[nH]cn1)C(=O)N[C@@H](CCC(=O)O)C(=O)N[C@H](C(=O)N[C@@H](Cc1ccc(O)cc1)C(N)=O)[C@@H](C)O)C(C)C)[C@@H](C)O
# B4: N^ε1-[(4S)-4-carboxy-4-[[(4S)-4-carboxy-4-(19-carboxynonadecanoylamino)butanoyl]amino]butanoyl]-[Arg17,Pro21,Pro27,Pro31,Pro34,Arg35]-h-amylin (peptide)
# peptide: K([γGlu-γGlu-C20 diacid])CNTATCATQRLANFLRHSSPNFGAIPSSTPVGPRTY-NH2
# modifications: disulfide 2-7; N-terminus assumed
# SMILES: CC[C@H](C)[C@H](NC(=O)[C@H](C)NC(=O)CNC(=O)[C@H](Cc1ccccc1)NC(=O)[C@H](CC(N)=O)NC(=O)[C@@H]1CCCN1C(=O)[C@H](CO)NC(=O)[C@H](CO)NC(=O)[C@H](Cc1c[nH]cn1)NC(=O)[C@H](CCCNC(=N)N)NC(=O)[C@H](CC(C)C)NC(=O)[C@H](Cc1ccccc1)NC(=O)[C@H](CC(N)=O)NC(=O)[C@H](C)NC(=O)[C@H](CC(C)C)NC(=O)[C@H](CCCNC(=N)N)NC(=O)[C@H](CCC(N)=O)NC(=O)[C@@H](NC(=O)[C@H](C)NC(=O)[C@@H]1CSSC[C@H](NC(=O)[C@@H](N)CCCCNC(=O)CC[C@H](NC(=O)CC[C@H](NC(=O)CCCCCCCCCCCCCCCCCCC(=O)O)C(=O)O)C(=O)O)C(=O)N[C@@H](CC(N)=O)C(=O)N[C@@H]([C@@H](C)O)C(=O)N[C@@H](C)C(=O)N[C@@H]([C@@H](C)O)C(=O)N1)[C@@H](C)O)C(=O)N1CCC[C@H]1C(=O)N[C@@H](CO)C(=O)N[C@@H](CO)C(=O)N[C@H](C(=O)N1CCC[C@H]1C(=O)N[C@H](C(=O)NCC(=O)N1CCC[C@H]1C(=O)N[C@@H](CCCNC(=N)N)C(=O)N[C@H](C(=O)N[C@@H](Cc1ccc(O)cc1)C(N)=O)[C@@H](C)O)C(C)C)[C@@H](C)O
# B5: N^ε1-[(4S)-4-carboxy-4-[[(4S)-4-carboxy-4-(19-carboxynonadecanoylamino)butanoyl]amino]butanoyl]-[Glu14,Arg17,Pro21,Pro27,Pro34,Glu35,Pro37]-h-amylin (peptide)
# peptide: K([γGlu-γGlu-C20 diacid])CNTATCATQRLAEFLRHSSPNFGAIPSSTNVGPETP-NH2
# modifications: disulfide 2-7; N-terminus assumed
# SMILES: CC[C@H](C)[C@H](NC(=O)[C@H](C)NC(=O)CNC(=O)[C@H](Cc1ccccc1)NC(=O)[C@H](CC(N)=O)NC(=O)[C@@H]1CCCN1C(=O)[C@H](CO)NC(=O)[C@H](CO)NC(=O)[C@H](Cc1c[nH]cn1)NC(=O)[C@H](CCCNC(=N)N)NC(=O)[C@H](CC(C)C)NC(=O)[C@H](Cc1ccccc1)NC(=O)[C@H](CCC(=O)O)NC(=O)[C@H](C)NC(=O)[C@H](CC(C)C)NC(=O)[C@H](CCCNC(=N)N)NC(=O)[C@H](CCC(N)=O)NC(=O)[C@@H](NC(=O)[C@H](C)NC(=O)[C@@H]1CSSC[C@H](NC(=O)[C@@H](N)CCCCNC(=O)CC[C@H](NC(=O)CC[C@H](NC(=O)CCCCCCCCCCCCCCCCCCC(=O)O)C(=O)O)C(=O)O)C(=O)N[C@@H](CC(N)=O)C(=O)N[C@@H]([C@@H](C)O)C(=O)N[C@@H](C)C(=O)N[C@@H]([C@@H](C)O)C(=O)N1)[C@@H](C)O)C(=O)N1CCC[C@H]1C(=O)N[C@@H](CO)C(=O)N[C@@H](CO)C(=O)N[C@H](C(=O)N[C@@H](CC(N)=O)C(=O)N[C@H](C(=O)NCC(=O)N1CCC[C@H]1C(=O)N[C@@H](CCC(=O)O)C(=O)N[C@H](C(=O)N1CCC[C@H]1C(N)=O)[C@@H](C)O)C(C)C)[C@@H](C)O
# B6: N^ε1-[(4S)-4-carboxy-4-[[(4S)-4-carboxy-4-(19-carboxynonadecanoylamino)butanoyl]amino]butanoyl]-[His14,Arg17,Pro21,Pro27]-h-amylin (peptide)
# peptide: K([γGlu-γGlu-C20 diacid])CNTATCATQRLAHFLRHSSPNFGAIPSSTNVGSNTY-NH2
# modifications: disulfide 2-7; N-terminus assumed
# SMILES: CC[C@H](C)[C@H](NC(=O)[C@H](C)NC(=O)CNC(=O)[C@H](Cc1ccccc1)NC(=O)[C@H](CC(N)=O)NC(=O)[C@@H]1CCCN1C(=O)[C@H](CO)NC(=O)[C@H](CO)NC(=O)[C@H](Cc1c[nH]cn1)NC(=O)[C@H](CCCNC(=N)N)NC(=O)[C@H](CC(C)C)NC(=O)[C@H](Cc1ccccc1)NC(=O)[C@H](Cc1c[nH]cn1)NC(=O)[C@H](C)NC(=O)[C@H](CC(C)C)NC(=O)[C@H](CCCNC(=N)N)NC(=O)[C@H](CCC(N)=O)NC(=O)[C@@H](NC(=O)[C@H](C)NC(=O)[C@@H]1CSSC[C@H](NC(=O)[C@@H](N)CCCCNC(=O)CC[C@H](NC(=O)CC[C@H](NC(=O)CCCCCCCCCCCCCCCCCCC(=O)O)C(=O)O)C(=O)O)C(=O)N[C@@H](CC(N)=O)C(=O)N[C@@H]([C@@H](C)O)C(=O)N[C@@H](C)C(=O)N[C@@H]([C@@H](C)O)C(=O)N1)[C@@H](C)O)C(=O)N1CCC[C@H]1C(=O)N[C@@H](CO)C(=O)N[C@@H](CO)C(=O)N[C@H](C(=O)N[C@@H](CC(N)=O)C(=O)N[C@H](C(=O)NCC(=O)N[C@@H](CO)C(=O)N[C@@H](CC(N)=O)C(=O)N[C@H](C(=O)N[C@@H](Cc1ccc(O)cc1)C(N)=O)[C@@H](C)O)C(C)C)[C@@H](C)O
# notes: also called compound 92
# Target: T1, human calcitonin receptor
# Assay: cell-based or functional assay
row,Binder,hCTR funct. EC50 (pM)
1,B1,5580
2,K([γGlu-C20 diacid])CNTATCATQRLAEFLRHSSPNFGAIPSSTNVGPHTY-NH2 (disulfide 2-7),1450
3,B2,2140
4,B3,7050
5,B4,8660
6,B5,102
7,B6,2380
8,K([γGlu-γGlu-C20 diacid])CNTATCATQRLAEFLRHSSPNFGAIPSSTNVGPHTY-NH2 (disulfide 2-7 (inferred)),2830
9,K([γGlu-γGlu-C20 diacid])CNTATCATQRLADFLRHSSPNFGAIPSSTNVGPETY-NH2 (disulfide 2-7),843
